Laboratory results reported in FireProtDB (doi:10.1021/acs.biochem.7b01284).

Conditions: Methanothermobacter thermautotrophicus (strain ATCC 29096 / DSM 1053 / JCM 10044 / NBRC 100330 / Delta H); pH 7.5; Thermal; DSC; potassium phosphate buffer; reversible: no; whole UniProt chain shown

B1: Geranylgeranylglyceryl phosphate synthase wild type, O26652 (protein)
chain: MKVEDYFHDILRERKIHLTLIDPEEQTPEEAVEIARAAIRGGTDGIMLGGSTTDSSELDNTARALRENIDVPIILFPGNTTGVSRYADAIFFMSLLNSTNPYWIIGAQALGAATVKKMGIEALPMGYLVVEPGGTVGWVGDTKPVPRNKPDIAAAYAMAAEFLGMRLFYLEAGSGAPEHVPEEMIALVKRCTDQILIVGGGIRSGEDAARVAGAGADVVVTGTVVENSDNVEDKIREIVEGMGSV
Q: With B1 as the protein, how does the “unfolding enthalpy (calorimetric)” value read?
A: The value was 389 kcal/mol.
